Measured values as given in article PMC4525488, “Structure-based Mechanistic Insights into Terminal Amide Synthase in Nosiheptide-Represented Thiopeptides Biosynthesis” (Scientific Reports, 2015).

B1: selenomethionine NosA_(1-111) (domain or fragment, UniProt C6FX40 1-111, looked up)
chain: MTEHPAQQLYCTVVLWDLSRSAATVASLRAYLRDHAVDAYTTVPGLRQKTWISSTGPEGEQWGAVYLWDSPEAAYGRPPGVSKVVELIGYRPTERRYYSVEAATEGPAAAA
modifications: selenomethionine in place of methionine (one Met residue at the N-terminal sequence)
notes: NosA, terminal amide synthase of nosiheptide biosynthesis; the crystallised form
B2: truncated NosA_(1-111) variant (domain or fragment, UniProt C6FX40 1-111, looked up)
chain: B1 chain
notes: NosA, terminal amide synthase of nosiheptide biosynthesis
B3: C-terminal NosA_(112-151) peptide (peptide, UniProt C6FX40 112-151, looked up)
chain: APFGKGLGLAFDPASPEPLTRPQEFVPPGADAFIPSRPPA
notes: NosA, terminal amide synthase of nosiheptide biosynthesis; Cloned in the pSMT3 vector; source: 15N-labelled in M9 medium for NMR
B4: full-length NosA (wild type) (enzyme, UniProt C6FX40 1-151, looked up)
chain: MTEHPAQQLYCTVVLWDLSRSAATVASLRAYLRDHAVDAYTTVPGLRQKTWISSTGPEGEQWGAVYLWDSPEAAYGRPPGVSKVVELIGYRPTERRYYSVEAATEGPAAAAAPFGKGLGLAFDPASPEPLTRPQEFVPPGADAFIPSRPPA
notes: NosA, terminal amide synthase of nosiheptide biosynthesis; Cloned in pET28a by NheI and HindIII; also called WT NosA; WT full-length NosA

Columns and labels:
[1] = molecular target: the molecule itself; experiment: crystal structure; Se-Met NosA_(1-111), sitting-drop vapor diffusion at 293 K; 0.02 M magnesium chloride hexahydrate, 0.1 M HEPES pH 6.0-9.0, 22% w/v polyacrylic acid 5100; SAD, 2.40 Å
[2] = molecular target: the molecule itself; experiment: SEC; Superdex 75 10/300 GL, 50 mM Tris-HCl pH 7.5, 50 mM NaCl; retention compared with gel filtration markers of 44 kDa and 17 kDa
[3] = molecular target: B2; experiment: ITC; ITC-200, 20 mM Tris-HCl, 150 mM NaCl, pH 7.0, 298 K; who was in the syringe is not told; details: both partners purified

Binder	stoichiometry N [2]	also measured
B1	–	binding result [1]: binds
B2	2	–
B3	–	Kd [3]: 2.4 ± 1.2 mM
B4	2	–
